Data as given in PMC6158044 (Molecular microbiology, 2018).

B1: 19-bp dsDNA (dsDNA)
DNA 1: GGGGGCGGGGCGGGCGGCG
DNA 2: CGCCGCCCGCCCCGCCCCC

Tests used:
PrgB188-1233 = PrgB188-1233 (Enterococcus faecalis, UniProt Q04112); test: isothermal titration calorimetry; format: binding
PrgB246-558 = PrgB246-558 (Enterococcus faecalis, UniProt Q04112); test: isothermal titration calorimetry; format: binding
PrgB188-1233 dimer = PrgB188-1233 dimer (Enterococcus faecalis (plasmid pCF10), UniProt Q04112 188-1233); test: ITC
PrgB188-1233 monomer = PrgB188-1233 monomer (Enterococcus faecalis (plasmid pCF10), UniProt Q04112 188-1233); test: ITC
[1] = target: PrgB246-558 adhesin domain (Enterococcus faecalis (plasmid pCF10), UniProt Q04112 246-558); test: ITC

| Molecule | Kd (PrgB188-1233) | Kd (PrgB246-558) | Kd (PrgB188-1233 dimer) | Kd (PrgB188-1233 monomer) | Kd [1] |
| --- | --- | --- | --- | --- | --- |
| O=P(O)(O)OCC(O)CO (centres unmarked) [glycerol phosphate] | 309 ± 55.3 µM | 276 ± 71.2 µM | – | – | – |
| B1 | – | – | 164 ± 42.4 µM | 364 ± 73.8 µM | 46.2 ± 14.5 µM |
